Data on four molecules can be found in doi:10.1101/2024.05.08.593097.

Data set [1] has as its target R358E/K361E-CCaCalpL (Candidatus Cloacimonas acidaminovorans strain Evry).
The target in data set [2] is T1, CalpL (CCaCalpL, SAVED-Lon protease) (Candidatus Cloacimonas acidaminovorans, UniProt B0VHB4 1-506).
T1 sequence: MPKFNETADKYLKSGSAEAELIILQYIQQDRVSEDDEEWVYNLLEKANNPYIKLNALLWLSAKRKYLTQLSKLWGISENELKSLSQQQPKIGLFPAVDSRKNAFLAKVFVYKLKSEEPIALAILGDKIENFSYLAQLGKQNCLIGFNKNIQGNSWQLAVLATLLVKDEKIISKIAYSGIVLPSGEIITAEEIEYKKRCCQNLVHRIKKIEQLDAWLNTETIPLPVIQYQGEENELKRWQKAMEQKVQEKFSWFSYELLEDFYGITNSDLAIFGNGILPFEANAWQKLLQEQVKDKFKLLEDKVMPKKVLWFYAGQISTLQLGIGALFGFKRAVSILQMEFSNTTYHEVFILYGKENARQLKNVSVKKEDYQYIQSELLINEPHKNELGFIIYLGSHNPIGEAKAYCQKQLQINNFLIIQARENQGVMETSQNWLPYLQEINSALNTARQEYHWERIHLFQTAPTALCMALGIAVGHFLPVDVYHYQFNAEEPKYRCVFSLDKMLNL
As to the kind of experiment: cryo-EM structure.

The target of data set [3] is T1, CalpL (CCaCalpL, SAVED-Lon protease). As to the kind of experiment: cryo-EM structure. The source holds these as a separate data set.
For data set [4] the target is unchanged. As to the kind of experiment: cryo-EM structure. The source holds these as a separate data set.

Read-outs that look alike come from different tables or passages of the source.

Molecule R358E/K361E-CCaCalpL (enzyme) had a ring nuclease activity (cA4 cleavage), reduction against wt-CCaCalpL in data set [1] greater than 100 fold.
Regarding AAAA (structured_RNA, cyclic tetra-adenylate, 3'-5' linked ring closed by phosphodiester) [cA4], in data set [2], the binding result is on record as “binds”.
For the molecule AAAA (ssRNA, 2',3'-cyclic phosphate at 3' end) [A4>p], the binding result in data set [3] is “binds”.
For the molecule AAAA (ssRNA, 3'-phosphate) [A4p], in data set [4], the binding result is “binds”.
